Experimental findings from PMC8058328 (Developmental cell, 2021) are described below.

This assay deals with T1, GST-SH3BP4-HIS8x (human, UniProt Q9P0V3 1-963).
T1 sequence (looked up): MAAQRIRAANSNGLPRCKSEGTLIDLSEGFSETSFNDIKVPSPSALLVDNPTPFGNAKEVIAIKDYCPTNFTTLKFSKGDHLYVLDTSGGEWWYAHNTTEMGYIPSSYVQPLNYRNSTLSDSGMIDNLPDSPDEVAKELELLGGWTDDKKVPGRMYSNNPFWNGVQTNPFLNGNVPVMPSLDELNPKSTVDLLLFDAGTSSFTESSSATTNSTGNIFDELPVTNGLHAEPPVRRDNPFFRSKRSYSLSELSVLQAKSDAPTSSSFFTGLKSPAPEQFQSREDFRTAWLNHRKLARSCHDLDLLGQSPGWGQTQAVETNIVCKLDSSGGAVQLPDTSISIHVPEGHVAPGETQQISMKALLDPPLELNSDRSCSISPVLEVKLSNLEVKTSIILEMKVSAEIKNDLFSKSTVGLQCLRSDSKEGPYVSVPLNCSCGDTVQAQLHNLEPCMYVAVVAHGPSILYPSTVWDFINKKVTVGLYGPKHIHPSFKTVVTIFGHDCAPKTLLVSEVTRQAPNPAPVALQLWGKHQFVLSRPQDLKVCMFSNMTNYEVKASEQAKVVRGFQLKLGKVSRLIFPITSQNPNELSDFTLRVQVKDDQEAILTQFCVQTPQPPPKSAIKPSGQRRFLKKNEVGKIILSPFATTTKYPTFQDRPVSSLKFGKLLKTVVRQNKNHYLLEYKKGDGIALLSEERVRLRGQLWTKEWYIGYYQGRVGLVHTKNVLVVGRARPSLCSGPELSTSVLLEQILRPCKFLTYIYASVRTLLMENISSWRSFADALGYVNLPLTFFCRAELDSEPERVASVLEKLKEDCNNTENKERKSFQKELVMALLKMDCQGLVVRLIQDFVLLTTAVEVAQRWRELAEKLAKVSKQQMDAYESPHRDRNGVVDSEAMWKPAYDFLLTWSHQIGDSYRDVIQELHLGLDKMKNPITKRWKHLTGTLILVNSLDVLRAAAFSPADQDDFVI
Nature of the assay: pull-down.

B1: GIPC1-HIS8x (natural protein, human, UniProt O14908 1-333, looked up)
chain: MPLGLGRRKKAPPLVENEEAEPGRGGLGVGEPGPLGGGGSGGPQMGLPPPPPALRPRLVFHTQLAHGSPTGRIEGFTNVKELYGKIAEAFRLPTAEVMFCTLNTHKVDMDKLLGGQIGLEDFIFAHVKGQRKEVEVFKSEDALGLTITDNGAGYAFIKRIKEGSVIDHIHLISVGDMIEAINGQSLLGCRHYEVARLLKELPRGRTFTLKLTEPRKAFDMISQRSAGGRPGSGPQLGTGRGTLRLRSRGPATVEDLPSAFEEKAIEKVDDLLESYMGIRDTELAATMVELGKDKRNPDELAEALDERLGDFAFPDEFVFDVWGAIGDAKVGRY
B1: the binding result is recorded as “binds”.
